According to patent publication US20070166286:

Key:
Assay in all cases: cell_activity
FLPe (thermostable FLP) = conditions: substrate plasmid ad2879, 293 cells
FLP recombinase = conditions: substrate plasmid ad2879, 293 cells; 4.9 in Table 2 with vector control
[1] = system: Cre recombinase (bacteriophage P1); conditions: Ad2HCRGFP/EBV in HepG2, 72 h post infection, moi 1000
[2] = system: Cre-LBD (bacteriophage P1); conditions: type B provirus pk8-ad4332, +tamoxifen; 4.1 without
[3] = system: LBD-Cre-LBD (bacteriophage P1); conditions: type B provirus pk8-ad4626, +tamoxifen; 0.05 without

Substance FRT site has an activity (mean GFP intensity) (FLPe (thermostable FLP)) of 2.39 and an activity (mean GFP intensity) (FLP recombinase) of 0.01.

Work on loxP site yielded an activity (% genomes circularized (or more)) [1] of 95, an activity (arbitrary GFP intensity) [2] of 6 and an activity (arbitrary GFP intensity) [3] of 4.2.
